B1: R5 (antibody)
heavy: not shown
light: DIQMTQSPSSLSASVGDRVTITCLASEGISSYLAWYQQKPGKAPKLLIYGANSLQTGVPSRFSGSGSATDYTLTISSLQPEDFATYYCQQSYKFPNTFGQGTKVEVKSGAPRFLTRPKAFVVSVGKDATLSCQIVGNPTPQVSWEKDQQPVAAGARFRLAQDGDLYRLTILDLALGDSGQYVCRARNAIGEAFAAVGLQVDAEA
B2: H4 (antibody)
heavy: not shown
light: DIQMTQSPSSVSASVGDRVTITCRASQDIANYLSWYQQKPGKSPKLLIYGTSNLEVGVPSRFSGSRSGTDFTLTISSLQPEDFATYYCLQDKEFPRTFGGGTKVEIKQGSPPCFLRFPRPVRVVSGAEAELKCVVLGEPPPVVVWEKGGQQLAASERLSFPADGAEHGLLLTAALPTDAGVYVCRARNAAGEAYAAAAVTVLEPP
B3: H3 (antibody)
heavy: not shown
light: DIQMTQSPSSVSASVGDRVTITCRASQDIANYLSWYQQKPGKSPKLLIYGTSNLEVGVPSRFSGSRSGTDFTLTISSLQPEDFATYYCLQDKEFPRTFGGGTKVEIKSGAPRFLTRPKAFVVSVGKDATLSCQIVGNPTPQVSWEKDQQPVAAGARFRLAQDGDLYRLTILDLALGDSGQYVCRARNAIGEAFAAVGLQVDAEA
B4: R10 (antibody)
heavy: not shown
light: DIQMTQSPSSLSASVGDRVTITCLASEGISSYLAWYQQKPGKAPKLLIYGANSLQTGVPSRFSGSGSATDYTLTISSLQPEDFATYYCQQSYKFPNTFGQGTKVEVKSGAPRFLTRPKAFVVSVGKDATLSSQIVGNPTPQVSWEKDQQPVAAGARFRLAQDGDLYRLTILDLALGDSGQYVSRARNAIGEAFACVGLQVDAEA
B5: R13 (antibody)
heavy: not shown
light: DIQMTQSPSSLSASVGDRVTITCLASEGISSYLAWYQQKPGKAPKLLIYGANSLQTGVPSRFSGSGSATDYTLTISSLQPEDFATYYCQQSYKFPNTFGQGTKVEVKSGAPRFLTRPKAFVVSVGKDATLSSQIVGNPTPQVSWEKDQQPVAAGARFRLAQDGDLYRLTILDLALGDSGQYVSRARNAIGEAFACVGLQVDAEA
B6: R15 (antibody)
heavy: not shown
light: DIQMTQSPSSLSASVGDRVTITCLASEGISSYLAWYQQKPGKAPKLLIYGANSLQTGVPSRFSGSGSATDYTLTISSLQPEDFATYYCQQSYKFPNTFGQGTKVEVKSGAPRFKTRPKAFVVSVGKDATLSSQIVGNPTPQVSWEKDQQPVAAGARFRLAQDGDLYRLHILDLALGDSGQYVSRARNAIGEAFACVGLQVDAEA
B7: R14 (antibody)
heavy: not shown
light: DIQMTQSPSSLSASVGDRVTITCLASEGISSYLAWYQQKPGKAPKLLIYGANSLQTGVPSRFSGSGSATDYTLTISSLQPEDFATYYCQQSYKFPNTFGQGTKVEVKSGAPRFKTRPKAFVVSVGKDATLSSQIVGNPTPQVSWEKDQQPVAAGARFRLAQDGDLYRLKILDLALGDSGQYVSRARNAIGEAFACVGLQVDAEA
B8: R17 (antibody)
heavy: not shown
light: DIQMTQSPSSLSASVGDRVTITCLASEGISSYLAWYQQKPGKAPKLLIYGANSLQTGVPSRFSGSGSATDYTLTISSLQPEDFATYYCQQSYKFPNTFGQGTKVEVKSGAPRFLTRPLAFVVSVGKDATLSSQIVGNPTPQVSWEKDQQPVAAGARFRLAQDGDLYRLHILDLALGDSGQYVSRARNAIGEAFACVGLQVDAEA
B9: R16 (antibody)
heavy: not shown
light: DIQMTQSPSSLSASVGDRVTITCLASEGISSYLAWYQQKPGKAPKLLIYGANSLQTGVPSRFSGSGSATDYTLTISSLQPEDFATYYCQQSYKFPNTFGQGTKVEVKSGAPRFLTRPLAFVVSVGKDATLSSQIVGNPTPQVSWEKDQQPVAAGARFRLAQDGDLYRLKILDLALGDSGQYVSRARNAIGEAFACVGLQVDAEA
B10: R19 (antibody)
heavy: not shown
light: DIQMTQSPSSLSASVGDRVTITCLASEGISSYLAWYQQKPGKAPKLLIYGANSLQTGVPSRFSGSGSATDYTLTISSLQPEDFATYYCQQSYKFPNTFGQGTKVEVKDQPQFSGAPRFKTRPKAFVVSVGKDATLSSQIVGNPTPQVSWEKDQQPVAAGARFRLAQDGDLYRLKILDLALGDSGQYVSRARNAIGEAFACVGLQVDAEA
B11: R20 (antibody)
heavy: not shown
light: DIQMTQSPSSLSASVGDRVTITCLASEGISSYLAWYQQKPGKAPKLLIYGANSLQTGVPSRFSGSGSATDYTLTISSLQPEDFATYYCQQSYKFPNTFGQGTKVEVKDQPQFSGAPRFKTRPKAFVVSVGKDATLSSQIVGNPTPQVSWEKDQQPVAAGARFRLAQDGDLYRLHILDLALGDSGQYVSRARNAIGEAFACVGLQVDAEA
B12: R22 (antibody)
heavy: not shown
light: DIQMTQSPSSLSASVGDRVTITCLASEGISSYLAWYQQKPGKAPKLLIYGANSLQTGVPSRFSGSGSATDYTLTISSLQPEDFATYYCQQSYKFPNTFGQGTKVEVKDQPQFSGAPRFRTRPKAFVVSVGKDATLSSQIVGNPTPQVSWEKDQQPVAAGARFRLAQDGDLYRLHILDLALGDSGQYVSRARNAIGEAFACVGLQVDAEA
B13: R18 (antibody)
heavy: not shown
light: DIQMTQSPSSLSASVGDRVTITCLASEGISSYLAWYQQKPGKAPKLLIYGANSLQTGVPSRFSGSGSATDYTLTISSLQPEDFATYYCQQSYKFPNTFGQGTKVEVKDQPQFSGAPRFLTRPKAFVVSVGKDATLSSQIVGNPTPQVSWEKDQQPVAAGARFRLAQDGDLYRLTILDLALGDSGQYVSRARNAIGEAFACVGLQVDAEA
B14: R21 (antibody)
heavy: not shown
light: DIQMTQSPSSLSASVGDRVTITCLASEGISSYLAWYQQKPGKAPKLLIYGANSLQTGVPSRFSGSGSATDYTLTISSLQPEDFATYYCQQSYKFPNTFGQGTKVEVKDQPQFSGAPRFRTRPKAFVVSVGKDATLSSQIVGNPTPQVSWEKDQQPVAAGARFRLAQDGDLYRLKILDLALGDSGQYVSRARNAIGEAFACVGLQVDAEA
B15: B3 (antibody)
heavy: not shown
light: SSELTQDPAVSVALGQTVRVTCQGDSLRSYYASWYQQKPGQAPVLVIYGKNNRPSGIPDRFSGSSSGNTASLTITGAQAEDEADYYCSSRDSSGNHWVFGGGTELTVLSEAPRFLTRPLAFVVSEGKDATLSSQIVGDPPPEVTWEKDQQPITAGARFRLAQDGDVYRLEILDLQLSDSGQYVSRARNAIGEAFACVGLQVDAEG
B16: B7 (antibody)
heavy: not shown
light: SSELTQDPAVSVALGQTVRVTCQGDSLRSYYASWYQQKPGQAPVLVIYGKNNRPSGIPDRFSGSSSGNTASLTITGAQAEDEADYYCSSRDSSGNHWVFGGGTELTVLSGAPRFLTRPLAFVVSVGKDATLSSQIVGNPTPQVSWEKDQLPVTAGARFRLAQDGDLYRLKILDLTLSDSGQYVSRARNAIGEAFACVGLEVGAEA
B17: B4 (antibody)
heavy: not shown
light: SSELTQDPAVSVALGQTVRVTCQGDSLRSYYASWYQQKPGQAPVLVIYGKNNRPSGIPDRFSGSSSGNTASLTITGAQAEDEADYYCSSRDSSGNHWVFGGGTELTVLSGAPRFLTRPLAFVVSVGKDATLSSQIVGNPTPQVSWEKDKQPVTAGARFRLAQDGDLYRLKILDLQLSDSGQYVSRARNAIGEAFACLGLQVDAEA
B18: B6 (antibody)
heavy: not shown
light: SSELTQDPAVSVALGQTVRVTCQGDSLRSYYASWYQQKPGQAPVLVIYGKNNRPSGIPDRFSGSSSGNTASLTITGAQAEDEADYYCSSRDSSGNHWVFGGGTELTVLSGAPRFLTRPLAFVVSVGKDATLSSQIVGNPTPQVSWEKDQLPVTAGARFRLAQDGDLYRLKILDLTLSDSGQYVSRARNAIGEAFACVGLEVGAEA
B19: B1 (antibody)
heavy: not shown
light: SSELTQDPAVSVALGQTVRVTCQGDSLRSYYASWYQQKPGQAPVLVIYGKNNRPSGIPDRFSGSSSGNTASLTITGAQAEDEADYYCSSRDSSGNHWVFGGGTELTVLSGAPRFLTRPLAFVVSVGKDATLSSQIVGNPTPQVSWEKDQQPVAAGARFRLAQDGDLYRLKILDLALGDSGQYVSRARNAIGEAFACVGLQVDAEA
B20: B5 (antibody)
heavy: not shown
light: SSELTQDPAVSVALGQTVRVTCQGDSLRSYYASWYQQKPGQAPVLVIYGKNNRPSGIPDRFSGSSSGNTASLTITGAQAEDEADYYCSSRDSSGNHWVFGGGTELTVLSGAPRFLTRPLAFVVSVGKDATLSSQIVGNPTPQVSWEKDQLPVTAGARFRLAQDGDLYRLKILDLTLSDSGQYVSRARNAIGEAFACVGLEVGAEA
B21: B8 (antibody)
heavy: not shown
light: SSELTQDPAVSVALGQTVRVTCQGDSLRSYYASWYQQKPGQAPVLVIYGKNNRPSGIPDRFSGSSSGNTASLTITGAQAEDEADYYCSSRDSSGNHWVFGGGTELTVLSGAPRFLTRPLSYVVSVGKDASLSSQIVGNPTPQVSWEKDQLPVTAGARFRLAQDGDLYRLKILDLQLSDSGQYVSRARNAIGEAFACVGLEVGAEA
B22: B2 (antibody)
heavy: not shown
light: SSELTQDPAVSVALGQTVRVTCQGDSLRSYYASWYQQKPGQAPVLVIYGKNNRPSGIPDRFSGSSSGNTASLTITGAQAEDEADYYCSSRDSSGNHWVFGGGTELTVLSGAPRFLTRPKSYTVSVGKDASLSSQIVGNPTPQVSWEKDQQPVAAGARFRLAQDGDLYRLKILDLALGDSGQYVSRARNAIGEAFACVGLQVDAEA

The target of the first assay is T1, hIL-5 (human, UniProt P05113 20-134).
T1 construct: bought
Kind of assay: ELISA. Background: In an ELISA, binding on a coated surface is turned into a signal by an enzyme label.
Protocol: (§1) For an antibody targeting a soluble protein, the binding activity of the antibody against the soluble protein was detected by ELISA. […] After the blocking was completed, the blocking solution was discarded; and the plate was washed 3 times with a PBST buffer (pH 7.4, PBS containing 0.1% tween-20). 100 μL of the antibody solution diluted in a gradient was added to each well, and the mixture was incubated at 37° C. for 1 h. After the incubation was completed, the plate was washed 3 times with PBST. […] The plate was washed 3 times with PBST. […] The reaction was stopped by adding 50 μL of 1 M H₂SO₄ to each well. The absorbance values at 450 nm were read on a microplate reader, the binding curves of the antibodies to an antigen were fitted with software, and the EC₅₀ values were calculated.
For the molecule B1, the response was half-maximal at 1.59 nM (EC50). Regarding B2, the EC50 – broadly, the concentration giving half of the maximal effect – turned out to be 2.7 nM. Same read-out and setting: for B3 the value was 2.75 nM.

The target of another assay is T1, hIL-5. The experiment in a line: ELISA. This is another data set of the same source.
Protocol: as §1
In turn, B1 came in with an EC50 of 4.13 nM. Same read-out and setting: in the case of B4 it was 3.2 nM; in that of B2, 3.28 nM. In turn, B3 yielded an EC50 of 3.24 nM.

Another assay has as its target T1, hIL-5. The experiment in a line: ELISA. The source holds these as a separate data set.
Protocol: as §1
Molecule B5 came in with an EC50 of 0.4 nM. On the same count and under the same terms, in the case of B6 it was 0.3 nM; in that of B7, 0.2 nM; in that of B4, 0.37 nM. On the same count and under the same terms, in the case of B8 it was 0.4 nM; in that of B9, 0.33 nM.

Regarding B10, the EC50 worked out at 0.36 nM.

As to B11, the EC50 turned out to be 0.39 nM. On the same count and under the same terms, for B12 the value was 0.39 nM; for B13, 0.44 nM; for B14, 0.37 nM.

Another assay addresses T2, hBAFF (human, UniProt Q9Y275 134-285).
T2 construct: bought
Kind of assay: ELISA.
Protocol: as §1
In turn, B15 gave an EC50 of 0.5 nM.

B16: the EC50 is 0.35 nM.

As for B17, the midpoint of the response, the EC50, lay at 0.25 nM.

The molecule B18 returned an EC50 of 0.19 nM. Still for that read-out and setting: for B19 the value was 0.28 nM.

B20 registered a concentration for a half-maximal effect (EC50) of 0.29 nM. B21 came in with a concentration giving a half-maximal response (EC50) of 0.16 nM. Same read-out and setting: for B22 the value was 0.19 nM.

(Values after patent US20240392020A1 (JIANGSU HENGRUI PHARMACEUTICALS, published 2024).)
